# Assay results: publication PMC11607471, “E3 Ubiquitin Ligase Ring Finger Protein 2 Alleviates Cerebral Ischemia–Reperfusion Injury by Stabilizing Mesencephalic Astrocyte‐Derived Neurotrophic Factor Through Monoubiquitination” (CNS Neuroscience & Therapeutics, 2024)
# T1: GST-RNF2 (human, UniProt Q99496 1-336)
# T1 construct: RNF2; also called recombinant GST-tagged human RNF2; source: Escherichia coli BL-21, immobilized on glutathione-Sepharose beads
# T1 sequence (looked up): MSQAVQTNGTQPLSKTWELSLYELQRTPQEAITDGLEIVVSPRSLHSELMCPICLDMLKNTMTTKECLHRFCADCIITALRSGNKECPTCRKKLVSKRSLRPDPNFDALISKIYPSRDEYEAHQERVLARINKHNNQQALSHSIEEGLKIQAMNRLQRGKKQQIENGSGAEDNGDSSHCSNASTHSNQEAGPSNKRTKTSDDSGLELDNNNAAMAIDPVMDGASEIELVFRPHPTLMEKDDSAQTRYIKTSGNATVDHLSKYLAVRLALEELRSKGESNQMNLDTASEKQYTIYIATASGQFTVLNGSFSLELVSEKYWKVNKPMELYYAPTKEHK
# B1: His-tagged human MANF (natural protein, UniProt P55145 25-182, looked up)
# chain: LRPGDCEVCISYLGRFYQDLKDRDVTFSPATIENELIKFCREARGKENRLCYYIGATDDAATKIINEVSKPLAHHIPVEKICEKLKKKDSQICELKYDKQIDLSTVDLKKLRVKELKKILDDWGETCKGCAEKSDYIRKINELMPKYAPKAASARTDL
# notes: human MANF; also called His-MANF; recombinant His-MANF; source: Escherichia coli BL-21, purified (Ni-NTA agarose)
# Molecular target: T1, GST-RNF2
# Assay: pull-down; GST-RNF2 immobilized on glutathione-Sepharose beads incubated with recombinant His-MANF; blot with anti-MANF
# Conditions: both partners purified
binder,measurement,value
B1,binding result,binds
